Measured values taken from patent US20250179215A1, “PLASMIN-BINDING VHHS” (RHEINISCHE FRIEDRICH-WILHELMS-UNIVERSITÄT BONN, priority 2022, published 2025).
“Also recorded” adds a separate entry of the source.

Columns and labels:
plasmin [1] = molecular target: T1, plasmin (Homo sapiens, UniProt P00747); assay: Michaelis-Menten kinetics of plasmin-mediated cleavage of fluorogenic peptide substrate; format: biochemical; conditions: plasmin 5 nM; VHHs 1 μM, BPTI 3 nM, TXA 7.86 mg/ml; w/o ligand 51.8
T1 construct: human Lys-plasmin which is prepared from homogeneous Glu-plasminogen using uPA; purchased Haematologic Technologies, Inc. (Essex Junction, VT)
T1 sequence (P00747 97-580 limits assumed): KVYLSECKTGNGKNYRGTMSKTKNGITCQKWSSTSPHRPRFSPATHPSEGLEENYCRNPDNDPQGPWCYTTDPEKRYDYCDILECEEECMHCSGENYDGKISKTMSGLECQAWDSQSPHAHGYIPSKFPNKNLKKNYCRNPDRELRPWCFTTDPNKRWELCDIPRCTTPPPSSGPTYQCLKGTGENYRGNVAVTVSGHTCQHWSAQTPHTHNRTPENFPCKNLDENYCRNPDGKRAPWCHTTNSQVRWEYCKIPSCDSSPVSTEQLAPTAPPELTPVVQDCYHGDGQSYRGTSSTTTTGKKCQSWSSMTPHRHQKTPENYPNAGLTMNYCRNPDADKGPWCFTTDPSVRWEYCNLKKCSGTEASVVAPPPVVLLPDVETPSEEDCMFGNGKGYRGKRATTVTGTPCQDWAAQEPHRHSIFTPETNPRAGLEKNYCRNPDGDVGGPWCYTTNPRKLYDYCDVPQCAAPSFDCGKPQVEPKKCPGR
T1 sequence (P00747 581-810 limits assumed): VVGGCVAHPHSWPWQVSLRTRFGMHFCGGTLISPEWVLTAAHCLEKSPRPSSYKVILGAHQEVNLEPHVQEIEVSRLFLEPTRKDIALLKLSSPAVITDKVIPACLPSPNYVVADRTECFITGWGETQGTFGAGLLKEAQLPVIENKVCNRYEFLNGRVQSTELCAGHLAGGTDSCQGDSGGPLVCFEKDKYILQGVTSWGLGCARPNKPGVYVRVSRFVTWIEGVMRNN
Method: Subsequently, 50 μl of the fluorogenic substrate (3.16-3,160 μM final concentration in assay buffer) was added. Substrate hydrolysis rates were monitored by kinetic measurements using the Synergy 2 microplate reader. Apparent Michaelis-Menten constants (Km) and the turn-over number (kcat) values for substrate hydrolysis were calculated from best fit values of the Michaelis-Menten equation and the catalytic efficiencies were expressed as ratios of kcat/Km.
CI, confidence interval. ^a The turnover number (kcat) was calculated using Vmax values extracted from Michaelis-Menten least squares fit.

[2] = system: citrate-anticoagulated whole blood; assay: Rotational thrombelastometry clot lysis in tPA-spiked whole blood; format: biochemical; conditions: for lysis index at 60 min: concentrations above 1.2 μM, decrease from 65%; for lysis index at 60 min / lysis onset time: tPA 0.5 μg/ml; for lysis onset time: reduced from 47.2 min
Text: To further test the fibrinolysis-activating properties of VHHs in an ex-vivo model of hyperfibrinolysis, a whole blood based assay can be used whereat citrate-anticoagulated whole blood in the presence of VHHs is spiked with tPA and clot formation and the fibrinolysis rate of the formed clot monitored by thrombelastometry after initiation of clotting by addition of CaCl2) solution containing recombinant TF.
FIG. 4. Influence of VHHs on endogenous fibrinolysis. (A) Citrate-anticoagulated whole blood was mixed with VHHs A11 or C5 and with tPA to achieve a final concentration of 0.5 μg/ml and clot formation was induced by addition of CaCl2) (0.2 M). (B) Lysis index at 60 min(C) Maximum lysis rates, and (D) lysis onset time were recorded. Mean values and SD were calculated out of three measurements.
(§1) The impact of VHHs on the fibrinolytic activity in plasma and whole blood was monitored using rotational thrombelastometry using the ROTEM delta system (TEM Innovations Ltd., Munich, Germany). […] After addition of 0.1 μg/ml tPA, coagulation was initiated by addition of recombinant tissue factor (Dade Innovin, Siemens Healthcare, Marburg, Germany) dissolved 1:100 in calcium chloride (0.2 M). The viscoelasticity of the formed clot was measured in terms of key parameters including clotting time, maximal clot firmness, maximum clot elasticity, maximum lysis, lysis index after 60 minutes, and lysis onset time.

[3] = system: citrate-anticoagulated pooled normal human plasma; assay: Rotational thrombelastometry clot formation parameters in plasma; format: biochemical; conditions: VHHs or BPTI 2.4 μM, TXA 2.4 μg/ml; tPA 0.1 μg/ml
Method: FIG. 10. The impact of VHHs on the clot formation parameters in plasma monitored by rotational thrombelastometry. […] After addition of tPA to reach a final concentration of 0.1 μg/ml, coagulation was initiated by addition of recombinant tissue factor (Dade® Innovin®) dissolved 1:100 in calcium chloride solution (0.2 M). The viscoelasticity of the formed clot was measured in terms of (A) clotting time, (B) maximum clot firmness, and (C) maximum clot elasticity. A non-binder VHH (GFP-enhancer VHH) was used as negative control. Mean values and SD were calculated out of three measurements.
as §1

plasmin [4] = molecular target: T1, plasmin; assay: Activated factor V-inactivation assay (prothrombinase assay); format: biochemical; conditions: for FVa inactivation by plasmin reduced to % of normal: summary statement, concentration not given; for FVa inactivation rate reduced to: plasmin 1.5 nM, rate without VHH = 100%
Method: FIG. 6. (A) Influence of VHHs on plasmin-mediated FVa cleavage. Plasmin (1.5 nM) was incubated with increasing concentrations of VHHs for 30 min at 37° C. After addition of FVa (30 pM) and further incubation for 30 min, FXa (0.52 pM), prothrombin (10 nM) and a fluorogenic thrombin substrate (100 μM) were added and the FVa-dependent thrombin generation was measured. The FVa inactivation rate measured in the absence of VHHs or plasmin inhibitors was set as 100%. […] The data are presented as mean±SD of two independent measurements.
Plasmin-mediated inactivation of activated factor V (FVa) was measured using a prothrombinase assay as recently described (Hamedani 2020). Briefly, 1.5 nM plasmin in assay buffer (20 mM Tris-HCl, 137 mM NaCl, 10 mg/ml phospholipids, 5 mM CaCl2, 1 mg/ml BSA, pH 7.4) was preincubated with VHHs (0.1 nM-10 μM final concentrations) for 30 min at 37° C. Then, 60 μl of the mixture were mixed with 60 μl of […] FVa. After further incubation for 30 min, 25 μl of the reaction mixture were mixed with 50 μl of 1.3 μM human FXa and 100 μM fluorogenic thrombin substrate (Boc-Asp(OBzl)-Pro-Arg-AMC) and 50 μl of 10 nM human prothrombin. Thrombin catalyzed substrate hydrolysis was monitored at λex of 360 nm and λem of 460 nm using the Synergy 2 microplate reader.

human plasmin = human plasmin (human, UniProt P00747 97-580; P00747 581-810); assay: cell-based or functional assay
human plasmin, sequence (P00747 97-580 limits assumed, chain 1 of 2): as the sequence (P00747 97-580 limits assumed) above
human plasmin, sequence (P00747 581-810 limits assumed, chain 2 of 2): as the sequence (P00747 581-810 limits assumed) above

plasmin [5] = molecular target: T1, plasmin; assay: Biolayer Interferometry (BLI) binding of VHHs to human plasmin; conditions: HIS-tagged VHH on biosensor
Method: (§2) VHHs binding affinities to human and mouse plasminogen/plasmin were assessed according to Biolayer Interferometry (BLI) using the BLItz system (Pall Life Sciences, Dreieich, Germany) and the Blitz 1.2 software package (Hamedani 2016). […] Afterward, the biosensor was lowered into a tube containing 500 μl of binding buffer to determine kd and koff. All measurements were performed at a shaking speed of 2,200 rpm.

mouse plasminogen = molecular target: T2, mouse plasminogen (Mus musculus, UniProt P20918); assay: Biolayer Interferometry (BLI) binding of VHHs to mouse plasminogen; conditions: HIS-tagged VHH on biosensor
T2 construct: mouse Glu-plasminogen, mouse plasmin; purchased Haematologic Technologies, Inc. (Essex Junction, VT)
T2 sequence (P20918 20-812 limits assumed): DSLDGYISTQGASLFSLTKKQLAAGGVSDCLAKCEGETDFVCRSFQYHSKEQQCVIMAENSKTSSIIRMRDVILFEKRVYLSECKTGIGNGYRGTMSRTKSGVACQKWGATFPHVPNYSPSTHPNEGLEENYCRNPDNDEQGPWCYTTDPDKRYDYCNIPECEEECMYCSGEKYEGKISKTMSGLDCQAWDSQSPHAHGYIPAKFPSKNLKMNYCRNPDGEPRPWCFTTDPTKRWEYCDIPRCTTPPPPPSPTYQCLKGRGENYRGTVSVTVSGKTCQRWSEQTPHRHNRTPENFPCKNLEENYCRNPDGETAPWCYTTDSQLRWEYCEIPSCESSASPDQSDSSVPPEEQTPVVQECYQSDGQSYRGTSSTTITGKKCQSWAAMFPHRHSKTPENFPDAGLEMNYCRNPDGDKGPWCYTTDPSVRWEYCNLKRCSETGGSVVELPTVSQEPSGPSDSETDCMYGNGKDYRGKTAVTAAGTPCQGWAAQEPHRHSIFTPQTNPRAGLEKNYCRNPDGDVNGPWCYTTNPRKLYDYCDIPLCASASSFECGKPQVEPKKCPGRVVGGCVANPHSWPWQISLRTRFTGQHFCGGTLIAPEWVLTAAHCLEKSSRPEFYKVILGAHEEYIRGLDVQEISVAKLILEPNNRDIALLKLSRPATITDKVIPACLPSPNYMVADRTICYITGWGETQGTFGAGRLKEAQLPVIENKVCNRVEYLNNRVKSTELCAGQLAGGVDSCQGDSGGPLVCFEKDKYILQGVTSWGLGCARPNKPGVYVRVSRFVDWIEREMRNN
Method: as §2

Ocriplasmin = Ocriplasmin (Homo sapiens, UniProt P00747); assay: Biolayer Interferometry (BLI) binding of VHHs to ocriplasmin (miniplasmin); conditions: HIS-tagged VHH on biosensor
Ocriplasmin, sequence (P00747 581-810 limits assumed, other chains not shown): as the sequence (P00747 581-810 limits assumed) above
Method: as §2

tPA = molecular target: T3, tPA (Homo sapiens, UniProt P00750); assay: Biolayer Interferometry (BLI) binding of VHHs to tPA; conditions: HIS-tagged VHH on biosensor
T3 construct: purchased Boehringer Ingelheim (Biberach, Germany) Actilyse
T3 sequence (P00750 36-562): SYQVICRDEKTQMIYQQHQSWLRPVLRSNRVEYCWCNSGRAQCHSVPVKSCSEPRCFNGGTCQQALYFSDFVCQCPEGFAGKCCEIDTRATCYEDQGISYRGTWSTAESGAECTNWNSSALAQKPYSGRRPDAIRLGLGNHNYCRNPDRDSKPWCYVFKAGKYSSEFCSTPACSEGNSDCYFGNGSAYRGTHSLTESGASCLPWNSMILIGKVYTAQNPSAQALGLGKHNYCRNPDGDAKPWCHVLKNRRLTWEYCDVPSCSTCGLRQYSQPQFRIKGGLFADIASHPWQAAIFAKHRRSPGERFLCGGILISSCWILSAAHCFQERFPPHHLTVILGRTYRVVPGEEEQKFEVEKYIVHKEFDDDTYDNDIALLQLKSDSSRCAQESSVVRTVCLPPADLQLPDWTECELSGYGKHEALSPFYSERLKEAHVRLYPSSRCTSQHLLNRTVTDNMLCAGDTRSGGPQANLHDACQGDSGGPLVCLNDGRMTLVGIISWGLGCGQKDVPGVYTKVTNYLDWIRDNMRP

plasmin [6] = molecular target: T1, plasmin; assay: VHHs competition ELISA (plasmin binding to immobilized VHH); conditions: free VHH vs immobilized VHH; plasmin 10 nM
Method: FIG. 2. VHHs competition ELISA. The VHH (A) A11 or (B) C5 was immobilized in the microtiter plate by overnight incubation of 10 μg/ml VHH in 100 μl of coating buffer. […] Data represent the mean±SD of two measurements.
To assess the competition of VHHs for similar or overlapping binding sites on the plasmin molecule, a competition ELISA was performed. Microtiter (96-well) plates were coated with VHHs (10 μg/ml in coating buffer, 100 μl/well) at 2-8° C. overnight. Wells were washed and non-specific protein-binding sites were blocked with 20 mg/ml bovine serum albumine (BSA) for 2 h at RT. After removing the blocking buffer, wells were overlaid with a reaction mixture containing plasmin (10 nM) and VHHs (0.316 nM-31.6 μM) in buffer (20 mM HEPES, 154 mM NaCl, BSA 1 mg/ml, pH 7.4) for 30 min at RT. After washing the amount of bound plasmin was quantified through hydrolysis rates of the fluorogenic plasmin substrate (300 μM, 100 μl/well). The fluorescence intensity measured in the absence of free VHHs was set as 100%.

plasmin [7] = molecular target: T1, plasmin; assay: Influence on catalytic activity of plasmin with fluorogenic peptide substrate; format: biochemical; conditions: plasmin 5 nM; for increase in substrate conversion: at molar ratios of VHHs over plasmin of 158 (A11) and 500 (C5)
Method: FIG. 3. Effect of plasmin VHHs on the catalytic activity of plasmin for peptide substrates. […] Mean values and SD were calculated out of three measurements.
After incubation, 50 μl of the mixtures were transferred to the wells of black F16 Fluoronunc modules (Thermo Fisher Scientific [Nunc]). Subsequently, 50 μl of 800 μM PLM-specific fluorogenic peptide substrate in the assay buffer (H-Ala-Phe-Lys-AMC, Bachem) was added to the wells and the kinetics of plasmin-mediated substrate hydrolysis was monitored using the Synergy 2 microplate reader.

plasminogen = molecular target: T4, plasminogen (Homo sapiens, UniProt P00747); assay: Plasmin generation assay (tPA-mediated plasminogen activation, purified system); format: biochemical; conditions: for inhibition of plasmin generation at higher concentrations: at the assessed / higher concentrations; for EC50: plasminogen 10 nM, tPA 10 nM, read-out: EC50 of tPA-induced plasmin generation
T4 construct: Plasma derived human Glu-plasminogen; purchased Haematologic Technologies, Inc. (plasminogen); Boehringer Ingelheim (tPA)
T4 sequence (P00747 20-810 limits assumed): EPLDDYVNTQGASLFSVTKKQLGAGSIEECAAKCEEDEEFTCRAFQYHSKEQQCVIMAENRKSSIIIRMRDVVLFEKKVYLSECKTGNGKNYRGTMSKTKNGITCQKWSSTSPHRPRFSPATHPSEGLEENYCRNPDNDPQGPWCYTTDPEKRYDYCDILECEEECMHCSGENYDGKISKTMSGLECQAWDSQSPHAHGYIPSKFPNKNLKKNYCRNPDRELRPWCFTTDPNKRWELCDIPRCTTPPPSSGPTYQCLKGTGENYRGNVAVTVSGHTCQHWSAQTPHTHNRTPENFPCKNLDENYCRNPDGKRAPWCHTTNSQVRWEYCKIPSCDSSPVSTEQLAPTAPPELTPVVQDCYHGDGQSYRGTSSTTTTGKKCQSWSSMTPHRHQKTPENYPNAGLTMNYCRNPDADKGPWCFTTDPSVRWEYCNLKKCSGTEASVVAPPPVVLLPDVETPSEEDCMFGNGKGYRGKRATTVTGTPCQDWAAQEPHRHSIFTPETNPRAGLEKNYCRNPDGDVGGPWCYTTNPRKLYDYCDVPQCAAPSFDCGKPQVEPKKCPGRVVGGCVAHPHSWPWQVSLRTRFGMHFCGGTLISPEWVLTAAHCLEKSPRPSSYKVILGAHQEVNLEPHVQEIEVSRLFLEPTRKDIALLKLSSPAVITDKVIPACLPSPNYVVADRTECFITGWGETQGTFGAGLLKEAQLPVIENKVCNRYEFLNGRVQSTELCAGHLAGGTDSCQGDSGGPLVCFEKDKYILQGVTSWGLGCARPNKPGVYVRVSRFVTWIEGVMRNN
Method: In order to assess the influence of VHHs on tPA-mediated plasminogen activation, plasminogen was preincubated with increasing concentrations of VHHs. After addition of tPA, plasmin generation was measured over time using a fluorogenic plasmin peptide substrate.
FIG. 5. Influence of VHHs on tPA-mediated plasminogen activation. […] After addition of tPA (10 nM final concentration) plasmin generation was measured over time using the fluorogenic plasmin assay. The data are presented as mean±SD of three independent measurements.
Plasminogen (50 nM) was incubated with VHHs (2 μM to 0.2 μM) for 30 min at 37° C. in assay buffer. Subsequently, 20 μl of 50 nM tPA was added to the mixture and incubated at 37° C. After 3 hours of incubation at 37° C., 50 μl of the mixture were transferred to the wells of black F16 Fluoronunc modules and after addition of 50 μl of the plasmin-specific fluorogenic substrate (800 μM) fluorescence intensities were measured at λex of 360 nm and λem of 460 nm using the Synergy 2 microplate reader.

Row | FVa inactivation by plasmin reduced to % of normal (plasmin [4]) [%] | kD human plasmin (plasmin [5]) | kD mouse plasminogen (mouse plasminogen) | kD tPA (tPA) | inhibition of plasmin generation at higher concentrations (plasminogen) | EC50 (plasminogen) [nM] | Molecule | kcat × 10^3 (s^−1) mean (95% CI) (plasmin [1]) | competition of VHHs for binding site on plasmin molecule (plasmin [6]) | increase in substrate conversion (plasmin [7]) | lysis index at 60 min [2] [%] | lysis onset time [2] [min] | further results
1 | 20 |  |  |  |  |  | Aprotinin [BPTI, reference compound] | 29.6 (29-30) s^−1 |  |  |  |  | effect on lysis compared to VHHs (FIG. 4C, maximum lysis rates) ([2]; tPA-spiked whole blood): inhibition of lysis; effect on fibrin clot formation parameters (clotting time, maximum clot firmness, maximum clot elasticity) [3]: does not affect; maximal inhibition rate of plasmin-mediated cleavage of FVa (plasmin [4]; BPTI 10 μM): 26%
2 |  |  |  |  |  |  | human alpha2-antiplasmin (from UniProt P08697 40-491) |  |  |  |  |  | residual plasmin activity after incubation with α2AP (human plasmin): < 0.1%
3 |  | low nanomolar range | no reactivity | weak binding | no inhibitory effect | 0.93 | VHH A11: Plasmin-binding alpaca VHH; variable domain SEQ ID NO: 9, or 11 with C-terminal His6-tag; CDRs SEQ ID NO: 1-3 (protein, A11 VHH) VHH: QVQLVETGGGLVQAGGSLRLSCAASGNIFSINAMDWYRQAPGKERELVAAITSGGTTNYADSVKGRFTISRDNAKDTVYLQMNSLKPEDAAFYYCNADGYYSDYDKNLAEFNSWGQGTQVTVSS | 67.2 (65-70) s^−1 | competed for the same or overlapping binding site | approx. 2.5 fold | 0 | 10.3 | kD Ocriplasmin (Ocriplasmin; listed as A11): None of these VHHs bind; also recorded: n.b.*; molar ratio of VHHs over plasmin at which approx. 2.5-fold increase in substrate conversion was achieved (plasmin [7]; H-Ala-Phe-Lys-AMC): 158; FVa inactivation rate reduced to (plasmin [4]; A11 concentrations above 10^-9 M): 60%; FVa inactivation by plasmin reduced to % of normal (plasmin [4]; listed as A11): 60%
4 | 80 | low nanomolar range | no reactivity | weak binding | no inhibitory effect | 2.3 | VHH C5: Plasmin-binding alpaca VHH; variable domain SEQ ID NO: 10, or 20 with C-terminal His6-tag; CDRs SEQ ID NO: 4-6 (protein, C5 VHH) VHH: QVQLVESGGGLVQAGGSLRLSCAASGRRFMVVAMGWYRQAPGNQRELVASITNGGTTNYAGSVKGRFTISGDSAKNTVYLHMNSLKPEDTAVYYCTTDVVFRDGNGQIQSNWGQGTQVTVSS | 69.9 (68-72) s^−1 | competed for the same or overlapping binding site | approx. 2.5 fold | 0 | 13.8 | kD Ocriplasmin (Ocriplasmin; listed as C5): None of these VHHs bind and n.b.; FVa inactivation rate reduced to (plasmin [4]; C5 concentration of 3.16 nM or higher): 78%
